Molecular target: T1, fragment consisting of the region of the 500th to 656th amino acids of FROUNT protein (Homo sapiens (Human), UniProt Q9BW27 500-656)
T1 construct: Fragment used in the NMR analysis; No tag is mentioned; also called FROUNT C-terminal fragment
T1 sequence: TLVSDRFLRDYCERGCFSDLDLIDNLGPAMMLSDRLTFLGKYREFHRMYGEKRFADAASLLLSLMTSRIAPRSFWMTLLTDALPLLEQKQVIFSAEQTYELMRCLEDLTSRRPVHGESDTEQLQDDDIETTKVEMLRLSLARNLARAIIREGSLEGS
Assay: NMR chemical shift perturbation

- binding result: binds
B1: CCR2 pro-C region fragment of 16 residues (SEQ ID NO:3) (peptide)
peptide: EKFRRYLSVFFRKHIT
notes: Peptide used in the NMR analysis; No biotinylation is mentioned
